± gives the standard deviation of the averaged measurements.
Columns and labels:
Saccharomyces cerevisiae [1] = test: protein stability index of tFT-peptide fusion (C-terminal peptide) (PSI (0-1 scale)); higher = more stable (slower turnover)
Experimental: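 MPS profiling in S. cerevisiae of the tFT-X12 degron library: putative degron peptides plus stable controls, 12 aa, fused to the C-terminus of a sfGFP-mCherry timer. Cells are FACS-sorted into 8 mCherry/sfGFP bins and deep-sequenced. PSI runs from 0 (unstable) to 1 (stable). Backgrounds are wild type, das1Δ and doa10Δ at 30 °C, and wild type, das1Δ, cdc34-1 and cdc53-1 at 37 °C; 2-3 technical replicates each.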

Saccharomyces cerevisiae [2] = test: as above; conditions: genetic background: wild type; temperature: 30 C
[3] = genetic background: cdc34-1, temperature: 37 C
[4] = genetic background: cdc53-1, temperature: 37 C
[5] = genetic background: das1 deletion, temperature: 30 C
[6] = genetic background: das1 deletion, temperature: 37 C
[7] = genetic background: doa10 deletion, temperature: 30 C
[8] = genetic background: wild type, temperature: 30 C
[9] = genetic background: wild type, temperature: 37 C
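Also: PSI is a weighted mean of sequencing reads over stability bins, variants kept only with over 10 reads, mCherry proximal and sfGFP distal, peptide attached via GGGS linker.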

Sequence | protein stability index (Saccharomyces cerevisiae [1]; [3]) | protein stability index (Saccharomyces cerevisiae [1]; [4]) | protein stability index (Saccharomyces cerevisiae [1]; [5]) | protein stability index (Saccharomyces cerevisiae [1]; [6]) | protein stability index (Saccharomyces cerevisiae [1]; [7]) | protein stability index (Saccharomyces cerevisiae [1]; [8]) | protein stability index (Saccharomyces cerevisiae [1]; [9]) | protein stability index (Saccharomyces cerevisiae [2])
ACACFWVVWVGW | 0.262 ± 0.027 | 0.374 ± 0.021 | 0.248 ± 0.024 | 0.4309 ± 0.0018 | 0.217 ± 0.021 | 0.238 ± 0.035 | 0.402 ± 0.0083 | 0.378 ± 0.03
ACEFRFFYVFRC | 0.304 ± 0.0093 | 0.245 ± 0.016 | 0.31 ± 0.056 | 0.425 ± 0.015 | 0.278 ± 0.0034 | 0.176 ± 0.016 | 0.287 ± 0.034 | 0.315 ± 0.008
AERPVLIIIEFG | 0.416 ± 0.039 | 0.532 ± 0.064 | 0.337 ± 0.031 | 0.5315 ± 0.0052 | 0.296 ± 0.015 | 0.339 ± 0.047 | 0.5248 ± 0.0013 | 0.417 ± 0.027
AFFCTLCLFLVS | 0.44 ± 0.02 | 0.472 ± 0.033 | 0.36 ± 0.036 | 0.496 ± 0.012 | 0.3064 ± 0.002 | 0.323 ± 0.037 | 0.478 ± 0.023 | 0.402 ± 0.014
AFLCVFGFCFFV | 0.423 ± 0.015 | 0.455 ± 0.014 | 0.372 ± 0.035 | 0.482 ± 0.026 | 0.285 ± 0.008 | 0.278 ± 0.019 | 0.407 ± 0.025 | 0.339 ± 0.037
AFRLRHEIISLM | 0.552 ± 0.081 | 0.726 ± 0.024 | 0.63 ± 0.056 | 0.744 ± 0.037 | 0.136 ± 0.0049 | 0.139 ± 0.037 | 0.344 ± 0.041 | 0.282 ± 0.013
AGGLLIGSVGVG | 0.434 ± 0.013 | 0.468 ± 0.0094 | 0.4439 ± 0.0038 | 0.468 ± 0.0066 | 0.4523 ± 0.0042 | 0.4436 ± 0.0017 | 0.4604 ± 0.0028 | 0.45 ± 0.008
AISLPVEVLAFS | 0.4 ± 0.028 | 0.387 ± 0.024 | 0.286 ± 0.051 | 0.438 ± 0.022 | 0.255 ± 0.025 | 0.293 ± 0.01 | 0.439 ± 0.021 | 0.383 ± 0.048
AKVSFYALARQY | 0.665 ± 0.017 | 0.715 ± 0.018 | 0.636 ± 0.018 | 0.726 ± 0.016 | 0.323 ± 0.0065 | 0.355 ± 0.025 | 0.563 ± 0.0078 | 0.414 ± 0.036
ALEFLLLVCRRL | 0.589 ± 0.026 | 0.621 ± 0.024 | 0.457 ± 0.011 | 0.6018 ± 0.0059 | 0.31 ± 0.026 | 0.334 ± 0.028 | 0.517 ± 0.013 | 0.418 ± 0.012
APPRSLSPPLLS | 0.6637 ± 0.0036 | 0.701 ± 0.011 | 0.672 ± 0.022 | 0.71 ± 0.0073 | 0.679 ± 0.0075 | 0.6795 ± 0.0034 | 0.689 ± 0.016 | –
FGWLELVWFDLG | 0.646 ± 0.0098 | 0.684 ± 0.031 | 0.525 ± 0.03 | 0.703 ± 0.033 | 0.51 ± 0.034 | 0.531 ± 0.024 | 0.68 ± 0.039 | –
GIFYVRTIWSCG | 0.232 ± 0.025 | 0.348 ± 0.0043 | 0.192 ± 0.014 | 0.3813 ± 0.0011 | 0.1446 ± 0.00063 | 0.17 ± 0.017 | 0.332 ± 0.011 | –
GRWGGYVGREWG | 0.497 ± 0.045 | 0.522 ± 0.025 | 0.442 ± 0.0056 | 0.482 ± 0.017 | 0.4402 ± 0.00068 | 0.458 ± 0.0072 | 0.461 ± 0.017 | –
GSMGGVGVLGGD | 0.544 ± 0.071 | 0.6535 ± 0.0059 | 0.467 ± 0.0086 | 0.5571 ± 0.0043 | 0.486 ± 0.018 | 0.476 ± 0.013 | 0.552 ± 0.018 | –
IGWGGGTWVKMG | 0.544 ± 0.0058 | 0.7335 ± 0.0016 | 0.654 ± 0.0079 | 0.769 ± 0.015 | 0.0923 ± 0.022 | 0.106 ± 0.023 | 0.166 ± 0.038 | –
LEDVLFVMVINI | 0.4551 ± 0.0027 | 0.542 ± 0.028 | 0.308 ± 0.038 | 0.549 ± 0.035 | 0.346 ± 0.012 | 0.292 ± 0.025 | 0.49 ± 0.03 | –
LLSLLLDPLLCL | 0.582 ± 0.024 | 0.624 ± 0.0029 | 0.522 ± 0.026 | 0.634 ± 0.015 | 0.521 ± 0.022 | 0.534 ± 0.024 | 0.6166 ± 0.0013 | –
SDGGVVRGGCRG | 0.592 ± 0.083 | 0.787 ± 0.012 | 0.519 ± 0.061 | 0.714 ± 0.1 | 0.549 ± 0.081 | 0.512 ± 0.046 | 0.598 ± 0.016 | –
SVYLYFQVVAYG | 0.0652 ± 0.021 | 0.0815 ± 0.058 | 0.0877 ± 0.049 | 0.198 ± 0.02 | 0.0536 ± 0.021 | 0.0724 ± 0.025 | 0.156 ± 0.0094 | –

— the supplement of paper PMC10724198
